This note sets out measurements from publication PMC9342608, “The OsEIL1‐OsERF115‐target gene regulatory module controls grain size and weight in rice”.

T1: GST-OsEIL1N (Oryza sativa, UniProt Q10M41 1-350)
T1 sequence: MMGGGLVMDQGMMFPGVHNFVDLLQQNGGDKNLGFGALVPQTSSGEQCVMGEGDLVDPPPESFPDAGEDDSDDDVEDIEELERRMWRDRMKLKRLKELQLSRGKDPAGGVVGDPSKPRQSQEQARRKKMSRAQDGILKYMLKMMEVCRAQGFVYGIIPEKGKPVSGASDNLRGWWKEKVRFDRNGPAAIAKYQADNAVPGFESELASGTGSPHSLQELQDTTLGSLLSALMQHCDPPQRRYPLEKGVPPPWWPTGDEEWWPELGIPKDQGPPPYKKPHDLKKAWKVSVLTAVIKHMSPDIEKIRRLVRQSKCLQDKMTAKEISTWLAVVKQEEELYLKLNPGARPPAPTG

B1: OsERF115 probe 1 (EBS1) (dsDNA)
DNA 1: CATAACTTTTCAGTCACATCATCTCCAATTTCAACCAAAATCCAAAC
DNA 2: GTTTGGATTTTGGTTGAAATTGGAGATGATGTGACTGAAAAGTTATG
B2: OsERF115 probe 2 (EBS2) (dsDNA)
DNA 1: ATATGGCTAGAAACATAAATGTAGCTACTTTCTCTGTGCACGA
DNA 2: TCGTGCACAGAGAAAGTAGCTACATTTATGTTTCTAGCCATAT
B3: OsERF115 probe 3 (EBS3) (dsDNA)
DNA 1: GATAGAACTACGTATGCACGGACCGGCTCATCACTAGAGGAG
DNA 2: CTCCTCTAGTGATGAGCCGGTCCGTGCATACGTAGTTCTATC

The data set concerns the target T1, GST-OsEIL1N. Kind of data set: EMSA; EMSA/Gel-Shift Binding Buffer (Beyotime GS005), 30 min at room temperature, 6% native PAGE; salt and pH not stated. The following applies: protein: recombinant; tags: GST (N-terminal, pGEX-4T); label: 5' biotin on strand 1; blunt.
For the molecule B1, the binding result is reported as “binds”.

On to B2, for which the binding result is given as “binds”.

For the molecule B3, the binding result is given as “binds”.
